{
  "source": "patent US20210063414A1",
  "about": "“METHODS FOR PREVENTING AND/OR TREATING BONE LOSS CONDITIONS BY MODULATING IRISIN” (Dana-Farber Cancer Institute, Inc., priority 2018, published 2021)",
  "test_in_all_cases": "Crosslinking/co-immunoprecipitation/mass spectrometry (TMT quantitative proteomics) to identify irisin receptors",
  "type_in_all_cases": "binding",
  "key": {"[1]": {"molecular_target": "T1, MLO-Y4 cell surface proteins (Mus musculus, UniProt P16460)", "T1 construct": "endogenous in cells; host or cells: MLO-Y4", "T1 sequence (P16460 1-412)": "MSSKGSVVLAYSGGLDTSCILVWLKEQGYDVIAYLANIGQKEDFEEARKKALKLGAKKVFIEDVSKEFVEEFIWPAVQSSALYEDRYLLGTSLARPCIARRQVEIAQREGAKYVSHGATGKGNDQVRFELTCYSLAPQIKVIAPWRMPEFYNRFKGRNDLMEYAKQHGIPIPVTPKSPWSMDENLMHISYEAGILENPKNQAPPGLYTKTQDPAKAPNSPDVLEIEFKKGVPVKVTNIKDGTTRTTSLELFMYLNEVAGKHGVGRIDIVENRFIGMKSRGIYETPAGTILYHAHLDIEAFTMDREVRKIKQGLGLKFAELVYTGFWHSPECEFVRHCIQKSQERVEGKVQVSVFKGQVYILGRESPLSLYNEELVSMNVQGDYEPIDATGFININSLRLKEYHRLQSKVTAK", "conditions": "co-precipitated protein Ass1 (ASSY_MOUSE)", "experimental": "(§1) MLO-Y4 cells were seeded on 30×150 mm type-I collagen coated dishes as described in cell culture experiment. At 60% cell density, medium was switched to FreeStyle™ 293 Expression medium. After 4 hours incubation, the cells were chilled on ice for 10 minutes, followed by treatment of 10 nM his-tag irisin or his-tag adipsin for 20 minutes. The cells were then incubated with 1.5 mM DTSSP for 30 minutes on ice to do cross-linking, after washing with 15 ml cold PBS twice. The cross-linking was quenched by addition of a final concentration of 20 mM Tris-pH 7.5. The cells were then harvested and homogenized in 1 ml RIPA buffer containing proteaseinhibitor cocktailand phosphatase-inhibitor cocktail. Whole-cell lysates were homogenized by 10 times passages through a 22G needle fitted to a 3 ml syringe. Homogenized samples were rotated gently in cold room for 20 minutes followed by 15,000×g centrifugation for 10 minutes. After addition of a final concentration of 10 mM imidazole, supernatants were incubated with 100 μl Ni-NTA agarose for 1 hour. After centrifugation at 500×g for 1 minute, the supernatants were aspirated and 1 ml cold RIPA buffer containing 10 mM imidazole were added to the agarose. After 10 minutes rotation in cold room, the supernatants were aspirated and 1 ml cold RIPA buffer containing 30 mM imidazole were added to the agarose. After repeating the washing 3 times, 0.8 ml RIPA buffer containing 250 mM imidazole was added and the agarose was gently rotated in a cold room for 20 minutes. After centrifugation at 1000×g for 2 minutes, the supernatants were transferred to 1.5 ml tube and incubated with 100 μl 0.2% sodium deoxycholate and 100 μl 10% trichloroacetic acid in ice for 1 hour. After centrifugation at 12,000×g for 10 minutes at 4° C., the supernatants were removed and 1 ml cold acetone was added to the pellets followed by vortexing for 10 seconds. After one more washing with cold acetone, the pellets were dried at 37° C., and 39 μl PBS and 13 μl 4×NuPAGE LDS were added to the pellets with a final concentration of 5 mM DTT. Solubilized proteins were incubated at 65° C. for 20 minutes followed by incubation with a final concentration of 14 mM iodoacetamide for 45 minutes in the dark. 38 μl samples were loaded to 4-12% gradient SDS-PAGE for separation followed by Coomassie Blue staining. The gels were submitted to quantitative proteomics.\n(§2) For in-gel digestions, gels were stained with Coomassie Blue and were excised into 8 equal segments for control and irisin lanes. Gel pieces were destained and dehydrated with 100% acetonitrile, vacuumed dried, and digested in 25 mM HEPES (pH 8.5) with 500 ng sequencing grade trypsin (Promega) and incubated for an overnight at 37° C. (Shevchenko et al. (1996) Anal. Chem. 68:850-858). Digests were treated with 1% formic acid and purified using C18 Stage-Tips as previously described (Rappsilber et al. (2007) Nat. Protoc. 2:1896-1906). Peptides were eluted with 70% acetonitrile and 1% formic acid, then dried using a speedvac. Isobaric labeling of digested peptides was accomplished using 6-plex tandem mass tag (TMT) reagents (Thermo Fisher Scientific, Rockford, Ill.). Reagents, 5.0 mg, were dissolved in 252 μl acetonitrile (ACN) and 5 μl of the solution was added to the digested peptides dissolved in 25 μl of 200 mM HEPES, pH 8.5. After 1 hour at room temperature, the reaction was quenched by adding 1 μl of 5% hydroxylamine. Labeled peptides were combined and acidified prior to C18 Stage-Tips desalting.\n(§3) All LC-MS/MS experiments were performed on an Orbitrap Fusion™ Lumos mass spectrometer (Thermo Fisher Scientific, San Jose, Calif., USA) coupled with a Proxeon EASY-nLC™ 1200 LC pump (Thermo Fisher Scientific). Peptides were separated on a 100 μm inner diameter microcapillary column packed with 35 cm of Accucore™ C18 resin (1.8 μm, 100 Å, Thermo Fisher Scientific). […]"}, "[2]": {"molecular_target": "T2, MLO-Y4 cell surface proteins (Mus musculus, UniProt P48997)", "T2 construct": "endogenous in cells; host or cells: MLO-Y4", "T2 sequence (P48997 1-467)": "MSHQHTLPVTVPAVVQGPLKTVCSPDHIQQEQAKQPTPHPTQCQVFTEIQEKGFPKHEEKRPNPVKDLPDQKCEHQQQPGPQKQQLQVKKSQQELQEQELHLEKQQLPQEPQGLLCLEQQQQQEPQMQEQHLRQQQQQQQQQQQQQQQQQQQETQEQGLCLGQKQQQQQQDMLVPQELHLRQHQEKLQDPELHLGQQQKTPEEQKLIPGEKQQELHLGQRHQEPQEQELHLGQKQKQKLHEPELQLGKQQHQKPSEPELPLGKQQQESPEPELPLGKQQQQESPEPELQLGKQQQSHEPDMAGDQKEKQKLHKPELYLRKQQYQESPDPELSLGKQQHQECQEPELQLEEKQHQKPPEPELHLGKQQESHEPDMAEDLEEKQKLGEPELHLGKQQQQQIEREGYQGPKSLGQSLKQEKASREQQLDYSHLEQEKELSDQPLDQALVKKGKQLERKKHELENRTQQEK", "conditions": "co-precipitated protein Ivl (INVO_MOUSE)", "experimental": "as §1, §2, §3"}, "[3]": {"molecular_target": "T3, MLO-Y4 cell surface proteins (Mus musculus, UniProt Q921N7)", "T3 construct": "endogenous in cells; host or cells: MLO-Y4", "T3 sequence (Q921N7 78-253)": "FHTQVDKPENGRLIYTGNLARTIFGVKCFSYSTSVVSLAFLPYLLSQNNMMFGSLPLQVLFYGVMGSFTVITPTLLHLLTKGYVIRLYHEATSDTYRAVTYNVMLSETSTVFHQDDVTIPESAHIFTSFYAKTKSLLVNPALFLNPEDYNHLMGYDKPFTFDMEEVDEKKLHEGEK", "conditions": "co-precipitated protein Tmem70 (TMM70_MOUSE)", "experimental": "as §1, §2, §3"}, "[4]": {"molecular_target": "T4, MLO-Y4 cell surface proteins (Mus musculus, UniProt Q9Z138)", "T4 construct": "endogenous in cells; host or cells: MLO-Y4", "T4 sequence (Q9Z138 34-944)": "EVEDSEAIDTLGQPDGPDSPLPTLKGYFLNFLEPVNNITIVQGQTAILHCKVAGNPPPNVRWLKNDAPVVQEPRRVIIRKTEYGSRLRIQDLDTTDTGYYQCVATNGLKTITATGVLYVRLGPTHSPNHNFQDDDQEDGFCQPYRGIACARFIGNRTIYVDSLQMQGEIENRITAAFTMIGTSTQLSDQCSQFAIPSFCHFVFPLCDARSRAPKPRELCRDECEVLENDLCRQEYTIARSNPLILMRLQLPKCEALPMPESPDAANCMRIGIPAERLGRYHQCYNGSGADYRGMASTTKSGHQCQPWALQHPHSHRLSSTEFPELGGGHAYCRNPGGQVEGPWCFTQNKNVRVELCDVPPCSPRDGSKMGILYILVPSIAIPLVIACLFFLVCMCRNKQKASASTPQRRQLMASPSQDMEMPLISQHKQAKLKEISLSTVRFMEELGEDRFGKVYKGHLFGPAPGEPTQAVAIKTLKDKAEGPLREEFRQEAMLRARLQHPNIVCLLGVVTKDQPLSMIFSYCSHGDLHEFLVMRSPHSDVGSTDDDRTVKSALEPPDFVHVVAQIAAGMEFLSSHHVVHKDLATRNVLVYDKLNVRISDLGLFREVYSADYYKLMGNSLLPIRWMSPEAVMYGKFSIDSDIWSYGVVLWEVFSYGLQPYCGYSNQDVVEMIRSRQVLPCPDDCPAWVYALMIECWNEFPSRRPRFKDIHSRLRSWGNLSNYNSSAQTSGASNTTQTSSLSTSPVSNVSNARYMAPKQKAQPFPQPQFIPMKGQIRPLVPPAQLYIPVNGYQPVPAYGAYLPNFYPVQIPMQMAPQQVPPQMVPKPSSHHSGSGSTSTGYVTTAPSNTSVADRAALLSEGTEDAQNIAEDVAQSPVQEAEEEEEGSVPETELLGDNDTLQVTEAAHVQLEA", "conditions": "co-precipitated protein Ror2 (ROR2_MOUSE)", "experimental": "as §1, §2, §3"}},
  "data": [
    {"molecule": "irisin: secreted cleaved form of FNDC5; recombinant human/mouse irisin with C-terminal his tag produced in HEK293 cells (protein, left off: small tags and cut ends, secreted cleaved form of FNDC5; recombinant human/mouse irisin with C-terminal his tag produced in HEK293 cells) DSPSAPVNVTVRHLKANSAVVSWDVLEDEVVIGFAISQQKKDVRMLRFIQEVNTTTRSCALWDLEEDTEYIVHVQAISIQGQSPASEPVLFKTPREAEKMASKNKDEVTMKE", "values": [
      {"measurement": "TMT signal-to-noise ratio", "setting": "[1]", "result": 3.2933},
      {"measurement": "irisin/adipsin TMT signal-to-noise ratio", "setting": "[1]", "result": 0.012},
      {"measurement": "TMT signal-to-noise ratio", "setting": "[2]", "result": 13.3857},
      {"measurement": "irisin/adipsin TMT signal-to-noise ratio", "setting": "[2]", "result": 0.060},
      {"measurement": "TMT signal-to-noise ratio", "setting": "[3]", "result": 49.6598},
      {"measurement": "irisin/adipsin TMT signal-to-noise ratio", "setting": "[3]", "result": 0.562},
      {"measurement": "TMT signal-to-noise ratio", "setting": "[4]", "result": 39.5932},
      {"measurement": "irisin/adipsin TMT signal-to-noise ratio", "setting": "[4]", "result": 0.585}
    ]}
  ]
}
